B1: PbioE probe (dsDNA)
DNA 1: TTTTAAATCTGGTACCATTTAAGGTCCGGCAAGATAATAATTTTGCTTCAAAAAAGAG
DNA 2: CTCTTTTTTGAAGCAAAATTATTATCTTGCCGGACCTTAAATGGTACCAGATTTAAAA
B2: PbioB probe (dsDNA)
DNA 1: TGCTTTTATCAAACTCATGTGTAATTACTCTGGTAATCTATATGATTAAGATTTAGAAG
DNA 2: CTTCTAAATCTTAATCATATAGATTACCAGAGTAATTACACATGAGTTTGATAAAAGCA

Target: BioL (EmBioL), MocR-family repressor (Elizabethkingia meningoseptica, UniProt A0A1T3FDC7 1-495)
Experiment: EMSA; PLP in protein elution buffer; 5 mM Mg2+; EMSA: 20 mM Tris-HCl pH 8.0, 50 mM KCl, 5 mM MgCl2, 1 mM DTT, 5% glycerol, room temperature 20 min; 5% native PAGE, GelRed stain
Conditions: protein: recombinant; tags: tag-free after Ulp1 cleavage of GST-SUMO; chain copies: 2; blunt

Binder	binding result
B1	binds
B2	binds

Reference: article PMC12915131, “Balanced Expression of the Diiron Oxygenase BioE Is Essential for Biotin Homeostasis in Elizabethkingia meningoseptica”
